According to patent WO2019194217A1:

Target: active IL-18 protein (human IL-18, positions 37 to 193), expressed and purified in E. coli (human) (UniProt Q14116)
Assay: capillary western immunoassay (Wes), primary antibody at 1:25 dilution (16 μg/mL)

Chain of UniProt Q14116 (Q14116 37-193 limits assumed): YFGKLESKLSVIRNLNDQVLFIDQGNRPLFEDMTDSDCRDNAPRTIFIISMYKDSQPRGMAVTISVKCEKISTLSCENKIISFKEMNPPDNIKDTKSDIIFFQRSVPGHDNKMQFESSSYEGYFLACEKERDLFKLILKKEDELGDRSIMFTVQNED

Substance: commercially available anti-IL-18 antibody D043-3: clone 25-2G
- concentration of IL-18 protein detectable: 100 ng/mL
